How the values were obtained:
[1] = biological target: T1, amphyphisin SH3 (AMPH_HUMAN), P49418; experiment: SPOT array
T1 chain: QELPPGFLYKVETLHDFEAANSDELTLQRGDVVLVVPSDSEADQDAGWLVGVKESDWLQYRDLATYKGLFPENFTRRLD

[2] = biological target: endophilin SH3 (SH3G2_HUMAN), Q99962; experiment: SPOT array

Binder	normalised SPOT signal, Boehringer light units (BLU); mean over the file's lines of this peptide [1]	normalised SPOT signal, Boehringer light units (BLU); mean over the file's lines of this peptide [2]
KAPPPTRPKRNDST [Q9C0I2 1104-1117]	8570	3140
KITPPRRPHRSSSG [Q9NWB4 151-164]	6680	2730
KFWDLRRPYEPINS [Q16632 639-652]	44.3	61.9
KFLDPARPYKSTVS [Q9C0A1 71-84]	20.4	43.5
KASRPIKPPGPPIN [Q8WZ42 18722-18736]	48.3	2120
ALTSPGRPPMGFTT [BAC03837 101-115]	51.2	260
KDLALLRPSKRQPP [Q9H6A9 265-278]	66.4	226
AMLSIPRPSKRFWM [Q92508 1232-1245]	258	20.1
ANIRLKRPLKMEDP [P23378 97-110]	21.8	228
KFLDPSRPYKSTVS [Q15911 1537-1550]	21.4	86.2
KEQEPKRPHIKKPL [Q9UJU2 290-303]	39	63.9
KDEKPKRPEDESGR [Q9BZI7 330-343]	30.5	314
ANKILNRPKRYNSG [P00740 37-50]	476	198
KDVLFIRPRKYIHS [Q92613 102-115]	66.7	86.6
KGRVLKRPPNSVVT [Q9HC49 341-354]	33.1	25.2
KDPGPPRPPAGATQ [Q9H7K4 46-60]	43.9	229
KGPGPQKPPTEADK [O15021 1933-1947]	59.9	82.6
KEMVPAKPPKGLVG [Q99651 220-234]	56.3	276
KKDSFERPRRVGAK [O95391 130-143]	2590	106
KIPKPPKPPKPPRP [Q9Y6N4 503-517]	1310	9990
KAGSISRPAKDESD [Q9H2U9 455-468]	164	127

Binder	normalised SPOT signal, Boehringer light units (BLU); mean over the file's lines of this peptide [1]	normalised SPOT signal, Boehringer light units (BLU); mean over the file's lines of this peptide [2]
KGTIPKRPWLSATP [O15043 393-406]	35.5	516
KAGRPSKPPSPKQN [Q9P2M4 294-308]	28	3150
IVYSFRRPVWPAVV [Q9Y5I0 277-290]	27.4	147
KAFPPPRPPPPNWE [Q9ULL8 1100-1114]	146	13600
KAISFLRPTKENVD [Q9Y4Z6 67-80]	56.2	68.6
KIVDPKRPLMPEES [Q9BXK3 581-594]	26.8	34
KIIPPKKPPTKVVP [Q8WZ42 11374-11388]	39	132
KGAPFRRPLYTNVP [Q9NQ11 1067-1080]	36.3	167
KIGFFKRPLKKKME [P56199 1137-1150]	149	200
AAPFPDRPPAHLVS [Q9P283 1-15]	48.1	90.4
KGSKPVRPPAPGHG [Q9UH43 133-147]	64.8	21200
KAVLPLRPPWPLWG [AAH32349 3-17]	100	11600
IYSTLKRPQVETKI [Q14699 89-102]	19.8	114
KISWLSRPRRVSLS [Q13577 12-25]	1200	492
KKPDIPRPIKINLL [Q9UHI5 412-425]	159	307
KKPPLRRPHSVIGG [Q00537 66-79]	15.8	81
IVKQIRRPKHVVVK [Q9Y4F1 101-114]	13	43.3
IYVSLKRPSWMVDN [P42702 4-17]	56.9	46.4
KANSPEKPPEAGAA [Q9UFC0 257-271]	40.8	47.6
KDPGPPRPHRPEAT [Q9Y6J0 1992-2005]	1150	412
IYTELSRPSKRRMQ [Q9UJU8 278-291]	85	60.3

Reference: publication PMC314469, “Protein Interaction Networks by Proteome Peptide Scanning” (PLoS Biology, 2004)
